The text below walks through data of patent US20240116985A1, “STAPLED PEPTIDES AND METHODS THEREOF” (priority 2020, published 2024).

Values joined by “and” are separate entries in the source; they are usually repeats but may differ in a detail not shown here. Identical values can stand only once. Starred links: 1 amine or outer side, 2 acyl side, 3 side chain; linkers in the order of their positions; H or OH if unused. Positions of bridges follow the written chain, without caps; N, C: chain ends. Non-standard residues stand in square brackets, D forms with d. PyrS2 = (S)-3-amino-1-((pent-4-en-1-yloxy)carbonyl)pyrrolidine-3-carboxylic acid, C=CCCCOC(=O)N1CC[C@@](N[*:1])(C(=O)[*:2])C1; B5 = 2-amino-2-(pent-4-en-1-yl)hept-6-enoic acid, C=CCCCC(CCCC=C)(N[*:1])C(=O)[*:2]; Bta = N[C@@H](Cc1csc2ccccc12)C(=O)O; αAllylPro = C=CC[C@@]1(C(=O)O)CCCN1; tBuAla = CC(C)(C)C[C@H](N)C(=O)O; 3Thi = N[C@@H](Cc1ccsc1)C(=O)O

Assay [1] has as its target beta-catenin-Halo NanoBRET construct (Homo sapiens (Human)) (UniProt P35222). Put plainly: NanoBRET, Bcat-Halo/TCF4-Luc in HEK293 cells; peptide 5 uM; replicate 2; competitor TCF4-Luc. On the technique in general: BRET reads energy transfer from a luciferase to a nearby fluorophore.
The target is the same in assay [2]. Kind of assay: NanoBRET, Bcat-Halo/TCF4-Luc in HEK293 cells; peptide 5 uM; replicate 3; competitor TCF4-Luc.
For assay [3] the target is unchanged. Kind of assay: NanoBRET, Bcat-Halo/TCF4-Luc in HEK293 cells; peptide 20 uM; replicate 2; competitor TCF4-Luc.
For assay [4] the target is unchanged. Put plainly: NanoBRET, Bcat-Halo/TCF4-Luc in HEK293 cells; peptide 2.5 uM; replicate 3; competitor TCF4-Luc.
Assay [5] shares this target. Kind of assay: NanoBRET, Bcat-Halo/TCF4-Luc in HEK293 cells; peptide 0.625 uM; replicate 1; competitor TCF4-Luc.
The target is the same in assay [6]. Kind of assay: NanoBRET, Bcat-Halo/TCF4-Luc in HEK293 cells; peptide 0.625 uM; replicate 3; competitor TCF4-Luc.
For assay [7], the target named is beta-catenin-Halo (NanoBRET construct expressed in HEK293 cells) (Homo sapiens (Human)) (UniProt P35222). Put plainly: NanoBRET, HEK293 cells with Bcat-Halo and TCF4-Luc; plate row D (5 uM by plate map), plate column 5.
For assay [8] the target is unchanged. Put plainly: NanoBRET, HEK293 cells with Bcat-Halo and TCF4-Luc; plate row D (5 uM by plate map), plate column 7.
Assay [9] has the same target. Kind of assay: NanoBRET, HEK293 cells with Bcat-Halo and TCF4-Luc; plate row B (20 uM by plate map), plate column 5.
The target is the same in assay [10]. Put plainly: NanoBRET, HEK293 cells with Bcat-Halo and TCF4-Luc; plate row B (20 uM by plate map), plate column 6.
Assay [11] has the same target. Put plainly: NanoBRET, HEK293 cells with Bcat-Halo and TCF4-Luc; plate row B (20 uM by plate map), plate column 7.
Assay [12] has the same target. Put plainly: NanoBRET, HEK293 cells with Bcat-Halo and TCF4-Luc; plate row C (10 uM by plate map), plate column 5.
Assay [13] shares this target. Kind of assay: NanoBRET, HEK293 cells with Bcat-Halo and TCF4-Luc; plate row E (2.5 uM by plate map), plate column 7.
Assay [14] shares this target. Put plainly: NanoBRET, HEK293 cells with Bcat-Halo and TCF4-Luc; plate row F (1.25 uM by plate map), plate column 5.
Assay [15] shares this target. Put plainly: NanoBRET, HEK293 cells with Bcat-Halo and TCF4-Luc; plate row F (1.25 uM by plate map), plate column 7.
For assay [16] the target is unchanged. Kind of assay: NanoBRET, HEK293 cells with Bcat-Halo and TCF4-Luc; plate row G (0.625 uM by plate map), plate column 5.
In assay [17] the target is beta-catenin-Halo NanoBRET construct (Homo sapiens (Human)) (UniProt P35222). Kind of assay: NanoBRET raw acceptor reading, Bcat-Halo/TCF4-Luc in HEK293 cells; plate row C (10 uM by plate map); competitor TCF4-Luc.
For assay [18] the target is unchanged. Kind of assay: NanoBRET raw acceptor reading, Bcat-Halo/TCF4-Luc in HEK293 cells; plate row E (2.5 uM by plate map); competitor TCF4-Luc.
For assay [19] the target is unchanged. Put plainly: NanoBRET raw acceptor reading, Bcat-Halo/TCF4-Luc in HEK293 cells; plate row F (1.25 uM by plate map); competitor TCF4-Luc.

Chain of beta-catenin-Halo NanoBRET construct (Homo sapiens (Human)) (P35222 whole entry): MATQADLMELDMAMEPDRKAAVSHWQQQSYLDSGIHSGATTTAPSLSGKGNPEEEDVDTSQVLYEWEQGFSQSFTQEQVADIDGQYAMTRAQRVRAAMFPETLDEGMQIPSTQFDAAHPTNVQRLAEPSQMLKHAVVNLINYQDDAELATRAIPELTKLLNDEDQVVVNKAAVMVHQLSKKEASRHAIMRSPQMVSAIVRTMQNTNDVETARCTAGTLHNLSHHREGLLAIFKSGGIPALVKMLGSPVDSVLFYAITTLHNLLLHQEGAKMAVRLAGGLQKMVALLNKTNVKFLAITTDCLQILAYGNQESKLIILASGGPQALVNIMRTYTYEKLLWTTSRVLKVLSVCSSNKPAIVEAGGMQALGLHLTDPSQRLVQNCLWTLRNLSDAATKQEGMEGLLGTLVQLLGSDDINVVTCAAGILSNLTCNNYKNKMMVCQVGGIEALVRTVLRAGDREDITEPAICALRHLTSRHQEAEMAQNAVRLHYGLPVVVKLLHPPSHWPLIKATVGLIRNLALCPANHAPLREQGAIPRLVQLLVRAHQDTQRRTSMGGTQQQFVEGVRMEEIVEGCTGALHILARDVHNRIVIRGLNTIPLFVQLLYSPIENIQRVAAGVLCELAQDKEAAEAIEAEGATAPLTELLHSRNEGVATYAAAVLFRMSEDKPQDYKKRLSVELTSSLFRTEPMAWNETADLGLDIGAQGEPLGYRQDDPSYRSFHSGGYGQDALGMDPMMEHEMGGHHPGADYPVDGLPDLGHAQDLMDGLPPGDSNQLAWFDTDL
Chain of beta-catenin-Halo (NanoBRET construct expressed in HEK293 cells) (Homo sapiens (Human)) (P35222 whole entry): as above

With Ac-[αAllylPro]F[tBuAla][B5]DDAADN[PyrS2][3Thi][Bta]Q-NH2 (staple 1-4, 4-11) [I-797], the % Inhibition in assay [1] is -28.4%; in [2], -18.6%; in assay [3] it was -0.3%; in [4], -11.7%; in assay [5], -56.5%; in [6], 8.3%. Further, the NanoBRET donor emission 450 BP (raw reading) in assay [7] stood at 38800; in assay [8], 47500; in [9] it was 58500; in [10], 55900; in [11], 48000; in [12] it was 58500. Moreover, the NanoBRET donor emission 450 BP (raw reading) in [13] stood at 40100; in [14], 21800; in [15] it was 71100; in assay [16], 25200. The Acceptor 600 LP emission is 790 and 350 and 470 in assay [17]; 460 and 220 and 510 in assay [18]; 300 and 410 and 860 in assay [19].

As a reminder, the % Inhibition is the drop in the measured response relative to a control, in per cent.
